The assay addresses Shp2 (UniProt Q06124). The assay can be described thus: GST pull-down from lysate, LC-MS/MS. Particulars: reference: wild-type GST-PD-1ICD; sites Y223,Y248.

Consider “PD-1 ICD, 194-288 (from UniProt Q15116) PD-1ICD-FF (Y223F, Y248F)”, for which the “binding against the reference” value was “weaker”.

Source of the values: paper PMC9287124.
